Laboratory results reported in paper PMC4722456.

The substances below were run against actin from chicken skeletal muscle (filamentous) (chicken) (UniProt P68139).

Row | Substance | Km for actin of the actin-activated Mg2+-ATPase (Michaelis-Menten fit)
1 | Drosophila melanogaster indirect flight muscle myosin subfragment 1, converter mutant R759E (domain or fragment) | 4.99 µM
2 | Drosophila melanogaster indirect flight muscle myosin subfragment 1, double mutant R759E/N509K (domain or fragment) | 3.58 µM
3 | Drosophila melanogaster indirect flight muscle myosin subfragment 1, wild type (domain or fragment) | 5.77 µM
